The source of these data is article PMC8191761, “The three-way junction structure of the HIV-1 PBS-segment binds host enzyme important for viral infectivity”.

The series deals with RHA (DHX9/RNA helicase A) (UniProt Q08211 1-1270). The series can be described thus: EMSA; 0.5 uM RNA, 0-4 uM RHA; preferred over TAR-PolyA; EMSA: binding buffer A, 10 mM Tris-HCl pH 7.5, 140 mM KCl, 10 mM KCl (so in the source); probably NaCl), 1 mM MgCl2, 37 C 10 min, 1.5% agarose; ITC: binding buffer B. The following applies: protein: recombinant; tags: N-terminal His6 and Mocr tags; label: site-specific 2H labels in some NMR samples; three-way junction.
RHA (DHX9/RNA helicase A), sequence (Q08211 whole entry): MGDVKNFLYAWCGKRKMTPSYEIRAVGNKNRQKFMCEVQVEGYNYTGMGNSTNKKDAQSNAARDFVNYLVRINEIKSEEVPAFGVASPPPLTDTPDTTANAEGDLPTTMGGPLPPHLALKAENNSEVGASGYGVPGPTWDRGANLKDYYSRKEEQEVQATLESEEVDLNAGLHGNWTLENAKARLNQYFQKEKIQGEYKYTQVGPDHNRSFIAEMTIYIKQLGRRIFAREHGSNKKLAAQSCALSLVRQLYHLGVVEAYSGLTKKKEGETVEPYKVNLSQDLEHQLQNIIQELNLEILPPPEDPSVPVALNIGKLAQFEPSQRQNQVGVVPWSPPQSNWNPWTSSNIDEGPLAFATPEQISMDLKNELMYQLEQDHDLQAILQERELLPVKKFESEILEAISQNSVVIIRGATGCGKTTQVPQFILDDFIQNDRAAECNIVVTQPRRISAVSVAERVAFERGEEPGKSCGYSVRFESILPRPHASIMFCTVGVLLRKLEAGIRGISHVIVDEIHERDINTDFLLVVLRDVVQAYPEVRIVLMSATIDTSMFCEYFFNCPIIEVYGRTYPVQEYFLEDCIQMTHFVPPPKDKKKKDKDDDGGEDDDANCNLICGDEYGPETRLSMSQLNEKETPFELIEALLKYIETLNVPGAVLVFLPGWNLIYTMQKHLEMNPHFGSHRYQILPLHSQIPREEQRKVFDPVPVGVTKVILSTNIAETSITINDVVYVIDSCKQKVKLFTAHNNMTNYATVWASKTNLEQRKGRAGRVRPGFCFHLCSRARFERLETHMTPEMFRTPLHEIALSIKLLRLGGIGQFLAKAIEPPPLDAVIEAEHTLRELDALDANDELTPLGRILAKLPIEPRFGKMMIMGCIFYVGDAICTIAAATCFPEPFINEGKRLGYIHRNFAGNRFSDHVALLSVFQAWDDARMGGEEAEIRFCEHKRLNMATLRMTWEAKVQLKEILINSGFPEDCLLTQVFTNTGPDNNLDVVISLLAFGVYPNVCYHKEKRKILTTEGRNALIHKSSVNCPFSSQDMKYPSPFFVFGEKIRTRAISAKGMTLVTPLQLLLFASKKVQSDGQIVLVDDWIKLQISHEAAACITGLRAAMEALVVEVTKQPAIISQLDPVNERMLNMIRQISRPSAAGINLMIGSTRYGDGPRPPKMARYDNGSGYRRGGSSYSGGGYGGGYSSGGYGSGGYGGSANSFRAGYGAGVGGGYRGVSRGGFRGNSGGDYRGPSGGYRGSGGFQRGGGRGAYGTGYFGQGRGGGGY

B1: PBS-segment (nt 125-223) (structured_RNA)
RNA: GGCUCUGGUAACUAGAGAUCCCUCAGACCCUUUUAGUCAGUGUGGAAAAUCUCUAGCAGUGGCGCCCGAACAGGGACUUGAAAGCGAAAGUAAAGCCAGAGCC
Consider B1, for which the binding result is on record as “binds”.
